Paper PMC3374083 (Cell Death and Differentiation, 2012)

B1: monomeric human Fas receptor extracellular domain (domain or fragment)
chain: QVTDINSKGLELRKTVTTVETQNLEGLHHDGQFCHKPCPPGERKARDCTVNGDEPDCVPCQEGKEYTDKAHFSSKCRRCRLCDEGHGLEVEINCTRTQNTKCRCKPNFFCNSTVCEHCDPCTKCEHGIIKECTLTSNTKCKEEGSRSN
B2: human Fas ligand, recombinant (ligand)
chain: QIGHPSPPPEKKELRKVAHLTGKSNSRSMPLEWEDTYGIVLLSGVKYKKGGLVINETGLYFVYSKVYFRGQSCNNLPLSHKVYMRNSKYPQDLVMMEGKMMSYCTTGQMWARSSYLGAVFNLTSADHLYVNVSELSLVNFEESQTFFGLYKL

Assays:
[1] = target: B2; experiment: SPR
[2] = target: B1; experiment: cell-based or functional assay
[3] = target: B1; experiment: cell-based or functional assay; remark: listed apart in the source

| Kd [1] [nM] | DNA fragmentation (oligonucleosomes in the cytosol) in Jurkat cells, 8 h, EC50 [3] [nM] | Binder | Jurkat cell killing (cell-viability assay), EC50 [2] [nM] |
| --- | --- | --- | --- |
| 14 | – | B1 | – |
| – | 2.8 | B2 | 7.1 |
